Data on 1 molecule can be found in US20210130870, “VISUAL AND MODULAR DETECTION OF NUCLEIC ACIDS WITH ENZYME-ASSISTED NANOTECHNOLOGY” (National University of Singapore, published 2021).

This data set has as its target Taq DNA polymerase (UniProt P19821 P19821:1-832). Kind of data set: BLI; 50 mM NaCl, 1.5 mM MgCl2, 50 mM Tris-HCl pH 8.5; immobilized biotin-aptamer; sensorgram only. The conditions noted are these: tags: GoTaq (Promega); label: biotin on aptamer for BLI; 20 bp duplex with 20 nt inverter overhang, conserved region CAATGTACAGTATTG
On the technique in general: Biolayer interferometry detects binding as a change in optical thickness at a sensor tip.

Sequence of Taq DNA polymerase (P19821 whole entry, one chain of several): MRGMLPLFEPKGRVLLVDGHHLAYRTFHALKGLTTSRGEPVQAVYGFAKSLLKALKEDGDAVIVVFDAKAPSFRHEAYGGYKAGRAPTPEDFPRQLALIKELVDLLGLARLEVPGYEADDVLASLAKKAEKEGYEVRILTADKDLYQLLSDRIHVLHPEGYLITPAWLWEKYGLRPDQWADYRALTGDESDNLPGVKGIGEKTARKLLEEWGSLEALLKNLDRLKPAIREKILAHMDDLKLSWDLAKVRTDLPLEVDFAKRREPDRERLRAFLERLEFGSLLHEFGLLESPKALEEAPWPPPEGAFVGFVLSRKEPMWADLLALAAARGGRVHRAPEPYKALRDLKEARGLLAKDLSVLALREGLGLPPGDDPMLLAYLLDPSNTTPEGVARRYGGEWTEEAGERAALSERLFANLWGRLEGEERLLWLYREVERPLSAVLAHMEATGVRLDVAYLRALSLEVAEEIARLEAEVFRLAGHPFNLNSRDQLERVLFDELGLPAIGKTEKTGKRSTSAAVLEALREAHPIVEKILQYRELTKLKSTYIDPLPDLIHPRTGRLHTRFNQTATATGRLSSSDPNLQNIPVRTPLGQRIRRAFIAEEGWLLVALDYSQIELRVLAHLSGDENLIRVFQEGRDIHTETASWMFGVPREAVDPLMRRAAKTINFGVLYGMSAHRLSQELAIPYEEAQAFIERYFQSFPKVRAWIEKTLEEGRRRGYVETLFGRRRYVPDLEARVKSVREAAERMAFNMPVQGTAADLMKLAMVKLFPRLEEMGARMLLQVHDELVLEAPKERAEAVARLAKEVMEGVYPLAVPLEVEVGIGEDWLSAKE

B1: HPV16 L2 aptamer/inverter recognition nanostructure (structured_DNA)
DNA 1: AAGTATCTGTAATAAAGTCACAATGTACAGTATTG
DNA 2: TGACTTTATTACAGATACTTCTACAACCCCGGTACCATCT
With B1, the binding result is recorded as “binds”.
